Test results published in patent US20250076311A1 (Chugai, published 2025).
Where a chain is given by its changes, count along the chain named. Numbers in names are those of the source. Where two headings read alike, the source gives them in different places.

Experiments:
[1] = target: T1, cynomolgus monkey FcγRIIIaS extracellular domain with C-terminal His-tag (cynomolgus monkey, UniProt Q8SPW2 21-206 at identity 1.00)); assay: SPR, KD(SG1)/KD(variant)
T1 construct: also called cyno FcgRIIIaS; cynoFcγRIIIaS
T1 chain: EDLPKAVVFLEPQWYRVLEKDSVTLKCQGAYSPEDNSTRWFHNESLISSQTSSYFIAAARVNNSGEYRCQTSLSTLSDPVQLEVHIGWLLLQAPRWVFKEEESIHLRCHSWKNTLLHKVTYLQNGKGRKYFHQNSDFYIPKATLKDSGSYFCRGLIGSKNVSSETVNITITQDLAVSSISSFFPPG

[2] = target: T2, human FcγRIIaH extracellular domain with C-terminal His-tag (human, UniProt P12318 34-217); assay: SPR, KD(SG1)/KD(variant)
T2 construct: also called human FcgRIIaH; FcγRIIa (type H)
T2 sequence: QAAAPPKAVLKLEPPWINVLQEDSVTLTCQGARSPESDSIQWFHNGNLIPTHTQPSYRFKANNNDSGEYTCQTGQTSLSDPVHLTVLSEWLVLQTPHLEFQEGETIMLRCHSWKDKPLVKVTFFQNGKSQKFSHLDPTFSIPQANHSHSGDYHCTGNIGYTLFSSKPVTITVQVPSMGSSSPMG

[3] = target: T3, cynomolgus monkey FcγRIIa3 extracellular domain with C-terminal His-tag (cynomolgus monkey); assay: SPR, KD(SG1)/KD(variant)
T3 construct: also called cyno FcgRIIa3; cynoFcγRIIa3
T3 chain: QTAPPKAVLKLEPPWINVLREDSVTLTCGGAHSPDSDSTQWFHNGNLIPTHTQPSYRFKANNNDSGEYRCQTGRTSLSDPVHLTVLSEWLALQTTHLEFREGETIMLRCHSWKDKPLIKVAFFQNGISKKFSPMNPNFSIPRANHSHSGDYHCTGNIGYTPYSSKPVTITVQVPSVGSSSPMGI
Description: (§1) The kinetic analysis of interactions between these antibodies and FcγR was carried out using BIACORE® T200 or BIACORE® 4000 (GE Healthcare). HBS-EP+ (GE Healthcare) was used as the running buffer, and the measurement temperature was set to 25° C. […] After the measurement, the antibody captured on the chip was washed off by allowing reaction with 10 mM glycine-HCl, pH1.5 and 25 mM NaOH so that the chip was regenerated and used repeatedly. The sensorgrams obtained as measurement results were analyzed by the 1:1 Langmuir binding model using the BIACORE® Evaluation Software to calculate the binding rate constant ka (L/mol/s) and dissociation rate constant kd (1/s), and the dissociation constant KD (mol/L) was calculated from these values. […] Regarding such interactions, KD values were calculated using the following 1:1 binding model described in BIACORE® T100 Software Handbook BR1006-48 Edition AE.

[4] = target: T4, cynomolgus monkey FcγRIIa2 extracellular domain with C-terminal His-tag (cynomolgus monkey); assay: SPR, KD(SG1)/KD(variant)
T4 construct: also called cyno FcgRIIa2; cynoFcγRIIa2
T4 chain: T3 chain with I127K, K130N, P133H, R142Q
Description: as §1

[5] = target: T3, cynomolgus monkey FcγRIIa3 …; assay: SPR, KD(SG1)/KD(variant)
Description: as §1

[6] = target: T1, cynomolgus monkey FcγRIIIaS …; assay: SPR, KD(SG1)/KD(variant)
Description: as §1

[7] = target: T5, cynomolgus monkey FcγRIIa1 extracellular domain with C-terminal His-tag (cynomolgus monkey); assay: SPR, KD(SG1)/KD(variant)
T5 construct: also called cyno FcgRIIa1; cynoFcγRIIa1
T5 chain: T3 chain with T95P, A121T, S128A, P133H, N135D
Description: as §1

[8] = target: T3, cynomolgus monkey FcγRIIa3 …; assay: SPR, antibody captured, FcγR analyte
[9] = target: T6, cynomolgus monkey FcγRIIb extracellular domain with C-terminal His-tag (cynomolgus monkey); assay: SPR, antibody captured, FcγR analyte
T6 construct: also called cyno FcgRIIb; cynoFcγRIIb
T6 chain: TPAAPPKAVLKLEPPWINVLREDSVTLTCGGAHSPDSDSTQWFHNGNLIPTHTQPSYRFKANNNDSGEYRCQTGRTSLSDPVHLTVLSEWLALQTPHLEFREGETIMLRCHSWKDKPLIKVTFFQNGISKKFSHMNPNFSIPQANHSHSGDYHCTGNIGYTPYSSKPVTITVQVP

[10] = target: T1, cynomolgus monkey FcγRIIIaS …; assay: SPR, antibody captured, FcγR analyte
[11] = target: T7, human FcγRIIaR extracellular domain, His-tagged (human, UniProt P12318 34-217); assay: SPR (BIACORE), antibody captured, FcγR analyte, 25 C; KD of SG1 divided by KD of variant
T7 construct: also called human FcγRIIa (type R); FcgRIIaR
T7 chain: T2 sequence with H134R

[12] = target: T8, cynomolgus monkey FcγRIIIaS extracellular domain, His-tagged (cynomolgus monkey, UniProt Q8SPW2 21-206 at identity 1.00)); assay: as above
T8 construct: also called cyno FcγRIIIaS; cynoFcgRIIIaS
T8 chain: T1 chain

[13] = target: T9, human FcγRIIIaV extracellular domain, His-tagged (human, UniProt P08637 17-208); assay: SPR (BIACORE), antibody captured on chip, FcγR as analyte, 25 C; KD of SG1 divided by KD of the variant
T9 construct: also called human FcγRIIIa (V158 allotype); FcgRIIIaV; not shown: His-tag added to the C-terminus
Description: as §1

[14] = target: T10, human FcγRIIaH extracellular domain, His-tagged (human, UniProt P12318 34-217); assay: as above
T10 construct: also called human FcγRIIa (type H); FcgRIIaH; not shown: His-tag added to the C-terminus
T10 sequence: T2 sequence
Description: as §1

[15] = target: T11, human FcγRIIaR extracellular domain with C-terminal His-tag (human, UniProt P12318 34-217); assay: SPR (Biacore), antibody captured, FcgR as analyte
T11 construct: also called human FcgRIIaR; FcγRIIa (type R)
T11 chain: T2 sequence with H134R

[16] = target: T12, cynomolgus monkey FcγRIIa3 extracellular domain with C-terminal His-tag (cynomolgus monkey); assay: SPR (Biacore), antibody captured, FcgR as analyte
T12 construct: also called cyno FcgRIIa3; cynoFcγRIIa3
T12 chain: T3 chain

[17] = target: T13, human FcγRIIb extracellular domain with C-terminal His-tag (human, UniProt P31994 43-217); assay: SPR (Biacore), KD of SG1 divided by KD of variant
T13 construct: also called human FcgRIIb
T13 sequence: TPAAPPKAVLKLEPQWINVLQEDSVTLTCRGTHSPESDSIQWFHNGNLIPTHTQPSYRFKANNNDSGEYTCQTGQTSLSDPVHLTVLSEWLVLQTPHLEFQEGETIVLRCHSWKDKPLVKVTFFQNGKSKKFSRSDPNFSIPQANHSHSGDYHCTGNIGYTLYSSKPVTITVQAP

[18] = target: T14, human FcγRIIaH extracellular domain with C-terminal His-tag (human, UniProt P12318 34-217); assay: SPR (Biacore), antibody captured, FcgR as analyte
T14 construct: also called human FcgRIIaH; FcγRIIa (type H)
T14 sequence: T2 sequence

[19] = target: T15, cynomolgus monkey FcγRIIa2 extracellular domain with C-terminal His-tag (cynomolgus monkey); assay: SPR (Biacore), antibody captured, FcgR as analyte
T15 construct: also called cyno FcgRIIa2; cynoFcγRIIa2
T15 chain: T3 chain with I127K, K130N, P133H, R142Q

[20] = target: T11, human FcγRIIaR extracellular domain …; assay: SPR (Biacore), KD of SG1 divided by KD of variant
[21] = target: T14, human FcγRIIaH extracellular domain …; assay: SPR (Biacore), KD of SG1 divided by KD of variant
[22] = target: T16, cynomolgus monkey FcγRIIb extracellular domain with C-terminal His-tag (cynomolgus monkey); assay: SPR (Biacore), KD of SG1 divided by KD of variant
T16 construct: also called cyno FcgRIIb; cynoFcγRIIb
T16 chain: T6 chain

[23] = target: T17, cynomolgus monkey FcγRIIa1 extracellular domain with C-terminal His-tag (cynomolgus monkey); assay: SPR (Biacore), antibody captured, FcgR as analyte
T17 construct: also called cyno FcgRIIa1; cynoFcγRIIa1
T17 chain: T3 chain with T95P, A121T, S128A, P133H, N135D

[24] = target: T18, cynomolgus monkey FcγRIIIaS extracellular domain with C-terminal His-tag (cynomolgus monkey, UniProt Q8SPW2 21-206 at identity 1.00)); assay: SPR (Biacore), antibody captured, FcgR as analyte
T18 construct: also called cyno FcgRIIIaS; cynoFcγRIIIaS
T18 chain: T1 chain

[25] = target: T13, human FcγRIIb extracellular domain with …; assay: SPR (Biacore), antibody captured, FcgR as analyte
[26] = target: T15, cynomolgus monkey FcγRIIa2 …; assay: SPR (Biacore), KD of SG1 divided by KD of variant

T9 sequence (P08637 17-208 F176V): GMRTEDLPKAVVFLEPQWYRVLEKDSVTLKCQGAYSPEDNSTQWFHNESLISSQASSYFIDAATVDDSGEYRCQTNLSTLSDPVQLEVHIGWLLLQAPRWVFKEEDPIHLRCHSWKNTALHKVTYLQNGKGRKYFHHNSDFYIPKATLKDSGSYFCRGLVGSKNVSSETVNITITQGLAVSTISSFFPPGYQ

B1: M103205H795-MY535/M103202L889-SK1 (antibody, human IgG1, kappa, name in EU numbering)
heavy: QVTLKESGPVLVKPTETLTLTCTVSGIDLSHDDISWVRQAPGKGLEWVGIISYAGSTYYASWAKGRLTISKDTSKNQVVLTMTNMDPVDTATYYCARGVPAYSHGGDLWGQGTLVTVSSASTKGPSVFPLAPSSKSTSGGTAALGCLVKDYFPEPVTVSWNSGALTSGVHTFPAVLQSSGLYSLSSVVTVPSSSLGTQTYICNVNHKPSNTKVDKKVEPKSCDKTHTCPPCPGPEWLTGPSVFLFPPKPKDTLMISRTPEVTCVVVDVSDEDPEVKFNWYVDGVEVHNAKTKPREEQYNSTYRVVSVLTVLHQDWLNGKEYKCKVSNKALPKPIEKTISKAKGQPREPQVYTLPPSREEMTKNQVSLTCLVKGFYPSDIAVEWESNGQPENNYKTTPPVLDSDGSFFLYSKLTVDKSRWQQGNVFSCSVMHEALHNHYTQKSLSLSP
light: DIVMTQSPATLSLSPGERATLSCTSSQSVYHANWLSWFQQKPGQPPKLLIYWASTLAYGVPSRFSGSGSGTDFTLTISSLQPEDAATYYCAGGYGGGRYAFGQGTKVEIKRTVAAPSVFIFPPSDEQLKSGTASVVCLLNNFYPREAKVQWKVDNALQSGNSQESVTEQDSKDSTYSLSSTLTLSKADYEKHKVYACEVTHQGLSSPVTKSFNRGEC
notes: copies: 2 + 2
[1]
  KD fold (SG1 = 1): 0.17 fold
[2]
  KD fold (SG1 = 1): 1.8 fold

B2: MS1032LO06-MY205 (antibody, human IgG1, kappa)
heavy: B1 heavy with G233A, W236L, T238N, Q297L
light: B1 light
notes: also called M103205H795-MY205; copies: 2 + 2
[3]
  KD fold (SG1 = 1): 5.2 fold

B3: MS1032LO06-PK56 (antibody, human IgG1, kappa)
heavy: B1 heavy with G233A, W236L, T238N, Q313R, P345R, D415R
light: B1 light
notes: MY201 with Q311R/P343R/D413R; also called MS103205H795-PK56; M103205H795-MY56
[4]
  KD fold (SG1 = 1): 3.9 fold
[5]
  KD fold (SG1 = 1): 2.5 fold
[6]
  KD fold (SG1 = 1): 0.08 fold
[7]
  KD fold (SG1 = 1): 2.5 fold
[8]
  Kd: 3500 nM
[9]
  Kd: 550 nM
[10]
  Kd: 4400 nM

B4: M103205H795-MY458/M103202L889-SK1 (antibody, human IgG1, kappa, name in EU numbering)
heavy: B1 heavy with G233A, P234Y, W236L
light: B1 light
[11]
  KD fold (SG1 = 1): 4.3 fold
[12]
  KD fold (SG1 = 1): 0.2 fold

B5: M103205H795-MY321/M103202L889-SK1 (antibody, human IgG1, kappa, name in EU numbering)
heavy: B1 heavy with G233A, W236L, T238H, P398M
light: B1 light
notes: Fc variant made by introducing substitutions into M103205H795-SG1; expressed with M103202L889-SK1 as light chain; Substitution positions are EU numbering
[13]
  KD fold for humanFcgRs (SG1 = 1): 0.24 fold
[14]
  KD fold for humanFcgRs (SG1 = 1): 9.7 fold

B6: M103205H795-MY339 / M103202L889-SK1 (antibody, human IgG1, kappa, name in EU numbering)
heavy: B1 heavy with G233A, W236L, T238L, K328T, P398K
light: B1 light
[15]
  Kd: 630 nM
[16]
  Kd: 9800 nM
[17]
  KD fold (SG1 = 1): 1.6 fold

B7: M103205H795-MY387 / M103202L889-SK1 (antibody, human IgG1, kappa, name in EU numbering)
heavy: B1 heavy with G233A, W236L, S241V
light: B1 light
[18]
  Kd: 240 nM
[19]
  Kd: 1900 nM
[20]
  KD fold (SG1 = 1): 5.5 fold
[21]
  KD fold (SG1 = 1): 2.9 fold
[22]
  KD fold (SG1 = 1): 2.7 fold
[17]
  KD fold (SG1 = 1): 2.9 fold

B8: M103205H795-MY526 / M103202L889-SK1 (antibody, human IgG1, kappa, name in EU numbering)
heavy: B1 heavy with G233T, W236L, S241V, Q297L
light: B1 light
[23]
  Kd: 1300 nM
[24]
  Kd: 1600 nM

B9: M103205H795-MY534 / M103202L889-SK1 (antibody, human IgG1, kappa, name in EU numbering)
heavy: B1 heavy with G233A, W236L, S241V, Q297L
light: B1 light
[25]
  Kd: 1200 nM
[26]
  KD fold (SG1 = 1): 3.5 fold
